{"source": "patent US11332512B2", "about": "“Peptides and combination of peptides for use in immunotherapy against various tumors” (Immatics Biotechnologies GmbH, priority 2015, dated 2022)"}
{"target": "HLA-A*02:01 (Homo sapiens, UniProt P04439, D140Y/D185E/D98H/E176V/E277Q/G131W/G231S/I119V/I121R/I166T/I218V/L300P/L318F/N151K/N90K/P208A/P217A/Q86G/Q94H/R138H/R169H/T345S)", "test": "MHC binding assay: UV-ligand exchange with beta2m ELISA (peptide exchange yield)", "conditions": "binding to HLA-A*02:01, β2m ELISA", "excerpt": "Candidate peptides for T cell based therapies according to the present invention were further tested for their MHC binding capacity (affinity). The individual peptide-MHC complexes were produced by UV-ligand exchange, where a UV-sensitive peptide is cleaved upon UV-irradiation, and exchanged with the peptide of interest as analyzed. Only peptide candidates that can effectively bind and stabilize the peptide-receptive MHC molecules prevent dissociation of the MHC complexes. To determine the yield of the exchange reaction, an ELISA was performed based on the detection of the light chain (β2m) of stabilized MHC complexes. The assay was performed as generally described in Rodenko et al. (Rodenko et al., 2006).\n96 well MAXISorp plates (NUNC) were coated over night with 2 ug/ml streptavidin in PBS at room temperature, washed 4× and blocked for 1 h at 37° C. in 2% BSA containing blocking buffer. Refolded HLA-A*02:01/MLA-001 monomers served as standards, covering the range of 15-500 ng/ml. Peptide-MHC monomers of the UV-exchange reaction were diluted 100 fold in blocking buffer. Samples were incubated for 1 h at 37° C., washed four times, incubated with 2 ug/ml HRP conjugated anti-β2m for 1 h at 37° C., washed again and detected with TMB solution that is stopped with […]. Absorption was measured at 450 nm. Candidate peptides that show a high exchange yield (preferably higher than 50%, most preferred higher than 75%) are generally preferred for a generation and production of antibodies or fragments thereof, and/or T cell receptors or fragments thereof, as they show sufficient avidity to the MHC molecules and prevent dissociation of the MHC complexes."}
{"substance": "148 (YLILSSHQL; listed as Homo sapiens) [compound 148]", "Peptide exchange (MHC class I binding score, peptide exchange yield)": "+++ (= ≥50% = +++)"}
{"substance": "150 (VLLDMVHSL; listed as Homo sapiens) [compound 150]", "Peptide exchange (MHC class I binding score, peptide exchange yield)": "+++ (= ≥50% = +++)"}
{"substance": "153 (KLVELEHTL; listed as Homo sapiens) [compound 153]", "Peptide exchange (MHC class I binding score, peptide exchange yield)": "+++ (= ≥50% = +++)"}
{"substance": "158 (YLDPLWHQL; listed as Homo sapiens) [compound 158]", "Peptide exchange (MHC class I binding score, peptide exchange yield)": "+++ (= ≥50% = +++)"}
{"substance": "159 (QLGPVPVTI; listed as Homo sapiens) [compound 159]", "Peptide exchange (MHC class I binding score, peptide exchange yield)": "+++ (= ≥50% = +++)"}
{"substance": "160 (TLQEWLTEV; listed as Homo sapiens) [compound 160]", "Peptide exchange (MHC class I binding score, peptide exchange yield)": "+++ (= ≥50% = +++)"}
{"substance": "162 (GLLGNLLTSL; listed as Homo sapiens) [compound 162]", "Peptide exchange (MHC class I binding score, peptide exchange yield)": "+++ (= ≥50% = +++)"}
{"substance": "164 (MLIIRVPSV; listed as Homo sapiens) [compound 164]", "Peptide exchange (MHC class I binding score, peptide exchange yield)": "+++ (= ≥50% = +++)"}
{"substance": "165 (SLLDYEVSI; listed as Homo sapiens) [compound 165]", "Peptide exchange (MHC class I binding score, peptide exchange yield)": "+++ (= ≥50% = +++)"}
{"substance": "166 (LLGDSSFFL; listed as Homo sapiens) [compound 166]", "Peptide exchange (MHC class I binding score, peptide exchange yield)": "+++ (= ≥50% = +++)"}
{"substance": "167 (LVVDEGSLVSV; listed as Homo sapiens) [compound 167]", "Peptide exchange (MHC class I binding score, peptide exchange yield)": "+++ (= ≥50% = +++)"}
{"substance": "168 (VIFEGEPMYL; listed as Homo sapiens) [compound 168]", "Peptide exchange (MHC class I binding score, peptide exchange yield)": "+++ (= ≥50% = +++)"}
{"substance": "169 (ALADLSVAV; listed as Homo sapiens) [compound 169]", "Peptide exchange (MHC class I binding score, peptide exchange yield)": "+++ (= ≥50% = +++)"}
{"substance": "173 (RLIDIYKNV; listed as Homo sapiens) [compound 173]", "Peptide exchange (MHC class I binding score, peptide exchange yield)": "+++ (= ≥50% = +++)"}
{"substance": "175 (SLLDLVQSL; listed as Homo sapiens) [compound 175]", "Peptide exchange (MHC class I binding score, peptide exchange yield)": "+++ (= ≥50% = +++)"}
{"substance": "177 (ALINVLNAL; listed as Homo sapiens) [compound 177]", "Peptide exchange (MHC class I binding score, peptide exchange yield)": "+++ (= ≥50% = +++)"}
{"substance": "179 (TLGEIIKGV; listed as Homo sapiens) [compound 179]", "Peptide exchange (MHC class I binding score, peptide exchange yield)": "+++ (= ≥50% = +++)"}
{"substance": "180 (RLYEEEIRI; listed as Homo sapiens) [compound 180]", "Peptide exchange (MHC class I binding score, peptide exchange yield)": "+++ (= ≥50% = +++)"}
{"substance": "181 (LLWAPTAQA; listed as Homo sapiens) [compound 181]", "Peptide exchange (MHC class I binding score, peptide exchange yield)": "+++ (= ≥50% = +++)"}
{"substance": "182 (GLQDGFQITV; listed as Homo sapiens) [compound 182]", "Peptide exchange (MHC class I binding score, peptide exchange yield)": "+++ (= ≥50% = +++)"}
{"substance": "183 (ALSYILPYL; listed as Homo sapiens) [compound 183]", "Peptide exchange (MHC class I binding score, peptide exchange yield)": "+++ (= ≥50% = +++)"}
{"substance": "190 (SLSTELFKV; listed as Homo sapiens) [compound 190]", "Peptide exchange (MHC class I binding score, peptide exchange yield)": "+++ (= ≥50% = +++)"}
{"substance": "191 (AAIEIFEKV; listed as Homo sapiens) [compound 191]", "Peptide exchange (MHC class I binding score, peptide exchange yield)": "+++ (= ≥50% = +++)"}
{"substance": "193 (ALFHMNILL; listed as Homo sapiens) [compound 193]", "Peptide exchange (MHC class I binding score, peptide exchange yield)": "+++ (= ≥50% = +++)"}
{"substance": "195 (VIIQNLPAL; listed as Homo sapiens) [compound 195]", "Peptide exchange (MHC class I binding score, peptide exchange yield)": "+++ (= ≥50% = +++)"}
{"substance": "200 (IMPTFDLTKV; listed as Homo sapiens) [compound 200]", "Peptide exchange (MHC class I binding score, peptide exchange yield)": "+++ (= ≥50% = +++)"}
{"substance": "204 (SEWGSPHAAVP; listed as Homo sapiens) [compound 204]", "Peptide exchange (MHC class I binding score, peptide exchange yield)": "+++ (= ≥50% = +++)"}
{"substance": "207 (KLFETVEEL; listed as Homo sapiens) [compound 207]", "Peptide exchange (MHC class I binding score, peptide exchange yield)": "+++ (= ≥50% = +++)"}
{"substance": "210 (GLAGDNIYL; listed as Homo sapiens) [compound 210]", "Peptide exchange (MHC class I binding score, peptide exchange yield)": "+++ (= ≥50% = +++)"}
{"substance": "211 (LLTTVLINA; listed as Homo sapiens) [compound 211]", "Peptide exchange (MHC class I binding score, peptide exchange yield)": "+++ (= ≥50% = +++)"}
{"substance": "213 (ILAVDGVLSV; listed as Homo sapiens) [compound 213]", "Peptide exchange (MHC class I binding score, peptide exchange yield)": "+++ (= ≥50% = +++)"}
{"substance": "214 (ALFETLIQL; listed as Homo sapiens) [compound 214]", "Peptide exchange (MHC class I binding score, peptide exchange yield)": "+++ (= ≥50% = +++)"}
{"substance": "217 (LLWPSSVPA; listed as Homo sapiens) [compound 217]", "Peptide exchange (MHC class I binding score, peptide exchange yield)": "+++ (= ≥50% = +++)"}
{"substance": "218 (SLTGANITV; listed as Homo sapiens) [compound 218]", "Peptide exchange (MHC class I binding score, peptide exchange yield)": "+++ (= ≥50% = +++)"}
{"substance": "220 (ALSELERVL; listed as Homo sapiens) [compound 220]", "Peptide exchange (MHC class I binding score, peptide exchange yield)": "+++ (= ≥50% = +++)"}
{"substance": "223 (ALHPVQFYL; listed as Homo sapiens) [compound 223]", "Peptide exchange (MHC class I binding score, peptide exchange yield)": "+++ (= ≥50% = +++)"}
{"substance": "224 (LLFDWSGTGRADA; listed as Homo sapiens) [compound 224]", "Peptide exchange (MHC class I binding score, peptide exchange yield)": "+++ (= ≥50% = +++)"}
{"substance": "225 (FLPQPVPLSV; listed as Homo sapiens) [compound 225]", "Peptide exchange (MHC class I binding score, peptide exchange yield)": "+++ (= ≥50% = +++)"}
{"substance": "226 (SLAGNLQEL; listed as Homo sapiens) [compound 226]", "Peptide exchange (MHC class I binding score, peptide exchange yield)": "+++ (= ≥50% = +++)"}
{"substance": "228 (SLLELDGINLRL; listed as Homo sapiens) [compound 228]", "Peptide exchange (MHC class I binding score, peptide exchange yield)": "+++ (= ≥50% = +++)"}
{"substance": "230 (KLLNMIFSI; listed as Homo sapiens) [compound 230]", "Peptide exchange (MHC class I binding score, peptide exchange yield)": "+++ (= ≥50% = +++)"}
{"substance": "231 (LLDDIFIRL; listed as Homo sapiens) [compound 231]", "Peptide exchange (MHC class I binding score, peptide exchange yield)": "+++ (= ≥50% = +++)"}
{"substance": "237 (ALLEQTGDMSL; listed as Homo sapiens) [compound 237]", "Peptide exchange (MHC class I binding score, peptide exchange yield)": "+++ (= ≥50% = +++)"}
{"substance": "239 (VIIKGLEEITV; listed as Homo sapiens) [compound 239]", "Peptide exchange (MHC class I binding score, peptide exchange yield)": "+++ (= ≥50% = +++)"}
{"substance": "241 (KQFEGTVEI; listed as Homo sapiens) [compound 241]", "Peptide exchange (MHC class I binding score, peptide exchange yield)": "+++ (= ≥50% = +++)"}
{"substance": "244 (NVAEIVIHI; listed as Homo sapiens) [compound 244]", "Peptide exchange (MHC class I binding score, peptide exchange yield)": "+++ (= ≥50% = +++)"}
{"substance": "248 (VLMQDSRLYL; listed as Homo sapiens) [compound 248]", "Peptide exchange (MHC class I binding score, peptide exchange yield)": "+++ (= ≥50% = +++)"}
{"substance": "249 (YLYQILQGI; listed as Homo sapiens) [compound 249]", "Peptide exchange (MHC class I binding score, peptide exchange yield)": "+++ (= ≥50% = +++)"}
{"substance": "250 (LMQDSRLYL; listed as Homo sapiens) [compound 250]", "Peptide exchange (MHC class I binding score, peptide exchange yield)": "+++ (= ≥50% = +++)"}
{"substance": "251 (LLWGNLPEI; listed as Homo sapiens) [compound 251]", "Peptide exchange (MHC class I binding score, peptide exchange yield)": "+++ (= ≥50% = +++)"}
